T1: 43-8 (ZF1) low affinity synTF (artificial, R-to-A backbone (low affinity allele, already in ref))
T1 chain: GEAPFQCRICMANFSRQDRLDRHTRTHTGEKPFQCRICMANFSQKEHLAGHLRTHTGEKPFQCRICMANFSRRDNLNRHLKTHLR

T2: 43-8 (ZF1) high affinity synTF (artificial)
T2 chain: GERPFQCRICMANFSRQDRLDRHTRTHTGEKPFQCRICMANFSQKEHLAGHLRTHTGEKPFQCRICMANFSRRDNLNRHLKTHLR

T3: 42-10 (ZF2) low affinity synTF (artificial, R-to-A backbone (low affinity allele, already in ref))
T3 chain: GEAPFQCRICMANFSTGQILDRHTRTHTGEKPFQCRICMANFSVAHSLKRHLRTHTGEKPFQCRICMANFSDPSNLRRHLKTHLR

T4: 42-10 (ZF2) high affinity synTF (artificial)
T4 chain: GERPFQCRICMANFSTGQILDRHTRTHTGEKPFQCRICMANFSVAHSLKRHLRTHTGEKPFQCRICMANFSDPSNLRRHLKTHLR


Tests used:
Assay in all cases: FP; fluorescence anisotropy; Zn2+, 25 C
Details in all cases: tags: N-terminal MBP; C-terminal GS linker + syntrophin ligand S5 (VKESLV)
[1] = target: T1, 43-8 (ZF1) low affinity synTF
Protocol: (§1) All assays were conducted in 20 mM Tris, pH 7.5, 100 mM […], 50 μM ZnCl2 buffer at 25° C. Proteins, probes, and competitor oligos were added to a final volume of 300 μL. Probes were used at 10 nM in all experiments. For complex assembly experiments (FIG. 1C), indicated concentrations of MBP-ZF₄₃₋₈ harboring a VSKESLV* ligand (SEQ ID NO: 120) (see e.g., FIG. 5A-FIG. 5B, FIG. 7A-FIG. 7B) were titrated against 5 μM concentrations of clamp. Mixtures were allowed to equilibrate at 25° C. for 10 min in Costar black 96-well plates prior to reading. Fluorescence anisotropy (FA) measurements were made at 494 nm using a SpectraMax M5 (Molecular Devices) fluorescence plate reader. For all measurements, anisotropy (r) was calculated using the following equation, wherein I_{∥} and I_{⊥} are parallel and perpendicular fluorescence, respectively:
(§2) TF-DBM binding constants were measured in vitro by fluorescence anisotropy (FA). Recombinant proteins were purified and DBM oligos prepared as described herein. […] Affinities for the interaction were measured as a function of the increase in fluorescence anisotropy resulting from binding of the fusion to a fluorescently labeled (FITC) oligo probe (data not shown). Oligo probe binding to ZF affinity variants was measured. MBP-ZF was titrated against 10 nM oligo probe. […] Kd values were extracted by fitting data to a quadratic binding equation (data not shown). Competition binding experiments were performed to measure binding constants for DBM affinity variants. […] Competitor oligo Kₐ values were extracted by fitting data (converted to fraction probe bound) to a cubic equation describing competitive binding (see e.g., FIG. 6). Sequences for both sets of DBM affinity variants are listed on the right of FIG. 6.

[2] = target: T2, 43-8 (ZF1) high affinity synTF
Protocol: as §1, §2

[3] = target: T3, 42-10 (ZF2) low affinity synTF
Protocol: as §1, §2

[4] = target: T4, 42-10 (ZF2) high affinity synTF
Protocol: as §1, §2

Binder | Kd [1] [nM] | Kd [2] [nM] | Kd [3] [nM] | Kd [4] [nM]
43-8 DBM1 (dsDNA) DNA 1: AGAGTGAGGAC DNA 2: GTCCTCACTCT | 13.6 | 6.5 | – | –
42-10 DBM1 (dsDNA) DNA 1: AGACGCTGCTC DNA 2: GAGCAGCGTCT | – | – | 15 | 2.4

— patent US20200002710A1, “SYSTEMS AND METHODS FOR CONTROL OF GENE EXPRESSION” (TRUSTEES OF BOSTON UNIVERSITY, published 2020)
